maleimide‑FITC = FITC conjugated through maleimide to the Cys of the Cys-containing CCK8 peptide
T1: human CCK8-type B receptor molecules on Panc-1 tumor cell line (Homo sapiens, UniProt P32239)
T1 construct: human CCK8-type B receptor molecules on Panc-1 tumor cell line; endogenous in cells; host or cells: Panc-1 pancreatic carcinoma cell line
T1 sequence (P32239 1-447): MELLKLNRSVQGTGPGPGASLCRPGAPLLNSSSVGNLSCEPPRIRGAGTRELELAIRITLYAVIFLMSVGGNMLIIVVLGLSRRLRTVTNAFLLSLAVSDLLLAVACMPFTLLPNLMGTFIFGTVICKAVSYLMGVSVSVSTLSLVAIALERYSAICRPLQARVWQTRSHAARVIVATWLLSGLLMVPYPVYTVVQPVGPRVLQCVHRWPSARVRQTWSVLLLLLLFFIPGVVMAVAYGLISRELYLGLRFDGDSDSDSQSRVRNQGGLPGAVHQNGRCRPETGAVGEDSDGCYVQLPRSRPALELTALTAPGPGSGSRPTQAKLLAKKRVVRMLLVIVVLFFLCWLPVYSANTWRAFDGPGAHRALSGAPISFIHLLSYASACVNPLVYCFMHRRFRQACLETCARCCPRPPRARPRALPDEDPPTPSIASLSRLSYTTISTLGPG

B1: mutated teplizumab: scFv of teplizumab with CDR3 VH cysteine substituted by serine, SEQ ID NO: 21 (protein)
scFv: QVQLVQSGGGVVQPGRSLRLSCKASGYTFTRYTMHWVRQAPGKGLEWIGYINPSRGYTNYNQKVKDRFTISRDNSKNTAFLQMDSLRPEDTGVYFCARYYDDHYSLDYWGQGTPVTVSSGSTSGSGKPGSGEGSTKGDIQMTQSPSSLSASVGDRVTITCSASSSVSYMNWYQQTPGKAPKRWIYDTSKLASGVPSRFSGSGSGTDYTFTISSLQPEDIATYYCQQWSSNPFTFGQGTKLQITRGGGGSGGGGSC
B2: DBCO-conjugated scFv specific for CD3: mutated teplizumab scFv conjugated at C-terminal cysteine with Mal-PEG5-DBCO (conjugate)
scFv: B1 scFv

Experiments:
[1] = target: T1, human CCK8-type B receptor molecules on Panc-1 tumor cell line; assay: Staining analysis (FACS) of binding of CCK8 peptide to CCK-type B receptor-expressing tumor cell line; format: cell-based; settings: 150 μg/ml CCK8-FITC reaction mixture, on ice 30 minutes, FIG. 24
Description: The CCK8 peptide molecule was analyzed for its ability to bind to human CCK8-type B receptor molecules on Panc-1 tumor cell line. Panc-1 was established from a pancreatic carcinoma, which was extracted via pancreatico-duodenectomy specimen from an individual. Malignancy of this cell line was verified via in vitro and in vivo assays. Prior to staining, the Cys-containing CCK8 peptide was conjugated with maleimide-FITC to produce a FITC-labeled CCK8 peptide as a detective CCK8 molecule with FITC. The assay was then performed by incubating 2×10^6 Panc-1 cells with 150 μg/ml of the reaction mixture of CCK8-FITC molecule in PBS, with 1 FBS and 1% sodium azide on ice for 30 minutes in the dark. The staining of maleimide-FITC alone was used a negative control. The staining of cells was analyzed by FACS (FACSCanto II; BD Biosciences). The x-axis of histogram is the fluorescence intensity. In FIG. 24, the dark area represents the background of fluorescence distribution of Panc-1 cells, the dashed line is the fluorescence distribution of Panc-1 cells stained maleimide-FITC and the dark line is the fluorescence distribution of Panc-1 cells stained CCK8-FITC.

[2] = target: T2, human CD3 on Jurkat T cell line (Homo sapiens, UniProt P07766); assay: Staining analysis (FACS) of binding of anti-CD3 scFv to T cells; format: cell-based
T2 construct: human T lymphocyte cell which express the T cell receptor (TcR)/CD3 complexes on the cell surface; endogenous in cells; host or cells: Jurkat T cell line
T2 sequence (P07766 23-207): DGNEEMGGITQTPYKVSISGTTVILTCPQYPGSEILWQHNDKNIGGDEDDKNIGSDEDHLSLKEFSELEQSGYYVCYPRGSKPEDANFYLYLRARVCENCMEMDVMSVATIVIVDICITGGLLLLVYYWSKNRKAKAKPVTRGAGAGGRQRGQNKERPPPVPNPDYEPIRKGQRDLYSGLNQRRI
T2 sequence (P09693 23-182 partner): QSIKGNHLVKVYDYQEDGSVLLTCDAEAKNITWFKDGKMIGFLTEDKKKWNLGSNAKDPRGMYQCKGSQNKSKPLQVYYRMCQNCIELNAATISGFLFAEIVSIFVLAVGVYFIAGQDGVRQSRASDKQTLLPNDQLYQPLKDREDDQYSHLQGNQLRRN
T2 sequence (P04234 22-171 partner): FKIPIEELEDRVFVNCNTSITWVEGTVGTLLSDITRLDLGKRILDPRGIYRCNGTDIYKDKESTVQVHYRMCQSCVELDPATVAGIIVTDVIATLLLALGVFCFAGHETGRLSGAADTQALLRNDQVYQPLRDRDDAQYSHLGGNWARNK
T2 sequence (P20963 22-164 partner): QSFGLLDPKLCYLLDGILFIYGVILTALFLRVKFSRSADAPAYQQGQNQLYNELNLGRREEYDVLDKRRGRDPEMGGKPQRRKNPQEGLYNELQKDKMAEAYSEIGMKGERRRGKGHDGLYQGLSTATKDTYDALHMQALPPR
T2 sequence (P01848 whole entry partner): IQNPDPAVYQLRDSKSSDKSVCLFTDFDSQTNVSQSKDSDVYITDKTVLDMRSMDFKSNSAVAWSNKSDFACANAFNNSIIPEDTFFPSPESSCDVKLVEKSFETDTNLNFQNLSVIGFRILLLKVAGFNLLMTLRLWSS
T2 sequence (P01850 whole entry partner): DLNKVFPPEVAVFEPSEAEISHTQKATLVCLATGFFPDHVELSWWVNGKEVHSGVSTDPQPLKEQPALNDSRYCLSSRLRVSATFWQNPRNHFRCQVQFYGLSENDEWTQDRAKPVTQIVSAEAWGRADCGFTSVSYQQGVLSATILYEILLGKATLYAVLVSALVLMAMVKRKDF
Description: The ability of the mutated teplizumab to bind to human T lymphocytes, which express CD3 was studied with Jurkat T cell line. The mutated teplizumab was analyzed for their ability to bind to human CD3 molecules on Jurkat T cell line. Jurkat cells are immortalized line of human T lymphocyte cell which express the T cell receptor (TcR)/CD3 complexes on the cell surface.
The assay was performed by incubating 2×10^6 Jurkat T cells with 0.1 and 1 μg/ml of the scFv in PBS with 1 FBS and 0.1% sodium azide on ice for 30 minutes. Cells were washed and incubated with FITC-conjugated Protein L (ACROBiosystems Inc., Newark, USA), diluted 1:200 in PBS/FBS, at 4° C. for 30 minutes in the dark. Protein L-FITC and FITC-conjugated rabbit anti-mouse IgG.Fc (AbD Serotec) were used as secondary antibodies. The staining of secondary antibodies alone were as negative controls. OKT3, a mouse monoclonal antibody specific for human CD3, was used as the positive control. The staining of cells was analyzed by FACS (FACSCanto II; BD Biosciences). The x-axis of histogram is the fluorescence intensity.
The purity of DBCO-conjugated scFvs specific for CD3 was identified through Coomassie staining of 12% SDS-PAGE (data not shown).

[3] = flow cytometric analysis, FIG. 23C

| Molecule | binding to Panc-1 cells [1] | binding to T cells ([2]; Jurkat T cells, 0.1 and 1 μg/ml scFv, on ice 30 minutes, FITC-conjugated Protein L, FACS, FIG. 23B) | binding to T cells [2, 3] |
| --- | --- | --- | --- |
| FITC-labeled CCK8 peptide (Ac-C(maleimide‑FITC)GGGGSDYMGWMDF-NH2; ends and bridges not checked) | bound to Panc-1 cells | – | – |
| B1 | – | bound to T cells | bound to T cells |
| B2 | – | – | bound to T cells |

From patent US10894091B2, “Linker units and molecular constructs comprising the same” (priority 2017, dated 2021)
